From paper PMC8523169, “Competitive binding of MatP and topoisomerase IV to the MukB hinge domain”

T1: MatP4E (Escherichia coli, UniProt P0A8N0 1-132, K71E;Q72E;R75E;R77E)
T1 sequence: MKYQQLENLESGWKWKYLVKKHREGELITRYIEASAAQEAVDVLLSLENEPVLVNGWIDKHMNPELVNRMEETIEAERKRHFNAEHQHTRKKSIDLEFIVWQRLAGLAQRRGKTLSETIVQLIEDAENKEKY

T2: MatP (MatPΔ18C) (Escherichia coli, UniProt P0A8N0 1-132)
T2 sequence: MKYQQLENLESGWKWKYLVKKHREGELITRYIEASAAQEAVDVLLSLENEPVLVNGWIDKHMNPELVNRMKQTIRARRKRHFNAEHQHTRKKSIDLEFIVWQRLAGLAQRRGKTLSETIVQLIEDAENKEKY


What was measured:
[1] = biological target: T1, MatP4E; assay: EMSA (native PAGE); 1 mM Mg2+; Native PAGE: 50 mM HEPES pH 7.5, 100 mM NaCl, 1 mM MgCl2, 1 mM DTT, 10% glycerol, on ice 30 min; FCS: 20 mM Tris-HCl pH 7.5, 50 mM NaCl, 0.3 mg/mL BSA, 2 mM DTT, 0.05% Tween-20, 22 °C; nMS buffer not given in the material; details: protein: recombinant; tags: C-terminal 6xHis; chain copies: 2; blunt
[2] = biological target: T2, MatP (MatPΔ18C); assay: native MS; Native PAGE: 50 mM HEPES pH 7.5, 100 mM NaCl, 1 mM MgCl2, 1 mM DTT, 10% glycerol, on ice 30 min; FCS: 20 mM Tris-HCl pH 7.5, 50 mM NaCl, 0.3 mg/mL BSA, 2 mM DTT, 0.05% Tween-20, 22 °C; nMS buffer not given in the material; details: protein: recombinant; tags: C-terminal 6xHis; chain copies: 2; blunt

Row | Binder | binding result [1] | binding result [2]
1 | 50 bp nonspecific DNA (dsDNA) DNA 1: CAGAGTTAATCACAACGGTTCTCGATCATCAAAGAAAAACAAGCTGTGCG DNA 2: CGCACAGCTTGTTTTTCTTTGATGATCGAGAACCGTTGTGATTAACTCTG | no binding | 
2 | 50 bp matS DNA (dsDNA) DNA 1: CAGAGTTAATCAGAACGGTGACAATGTCACAAAGAAAAAGAACCTGTGCG DNA 2: CGCACAGGTTCTTTTTCTTTGTGACATTGTCACCGTTCTGATTAACTCTG | no binding | binds
